In patent US20190040142A1 (Genentech, published 2019):

B1: bispecific anti-KLB antibody 12B8/2C12 (IgG format) (bispecific antibody, V domains shown)
VH 1: QIQLVQSGPELKKPGETAKISCKASGYAFSNYGMNWVKQAPGKDLKWMGWIDTDTGEATYTDDFKGRFVFSLETSASTAYLQINNLKNEDMATYFCAREEYGLFGFPYWGHGTLVTVSA
VL 1: DIQMTQSSSSFSVSLGDRVTITCKASEDIYNRLAWYQQKPGSAPRLLISAATSLETGVPSRFSGSGSGKDYTLSITSLQTEDVATYYCQQYWSNPLTFGAGTKLELK
VH 2: EVQLQQSGPGLVKPSQSLSLTCSVTGYSITSGYYWTWIRQFPGNKLEWMGYIKYDGGNYYNPSLRNRISITRDTSKNHFFLKFYSVTAEDTATYFCARGDYYASPYGAMDSWGQGTSVTVSS
VL 2: DIVMTQSPSSLSASLGDTITITCHASQDIDVWLSWYQQKPGNVPQLLISKSSILHTGVPSRFSGGGSGTGFTLTISSLQPEDIATYYCQQGLSYPFTFGSGTKLKIK
B2: bispecific anti-KLB antibody 2C12/28B7 (IgG format) (bispecific antibody, V domains shown)
VH 1: B1 VH 2
VL 1: B1 VL 2
VH 2: EVQLQQSGPELVQPGTSVKISCEASGYTFTDYYINWVKQSRGKSLEWIGDINPNNGDTTYNQKFKAKATLTVDRSSNTAYMELRSLTSEDSVVYYCARRFYSSPFDSWGQGTTLTVSS
VL 2: DIVMTQSPSSLAVSVGEKVTLSCKSGQSLLYSRNQKNYLAWYQQKPGQSPKLLISWASTRESGVPDRFTGSGSGTDFTLTISSVKTEDLAVYHCQQYYSYPYTFGGGTRLEIK
B3: bispecific anti-KLB antibody 12B8/23B3 (IgG format) (bispecific antibody, V domains shown)
VH 1: B1 VH 1
VL 1: B1 VL 1
VH 2: EVQLQESGPGLVKPSQSLSLTCSVTGYSITSGYYWNWIRQFPGNKLEWMGYIRYDGNSNYNPFLKNRVSITRDTSKNQFFLKLNSVTTEDTATYYCTRKGAYYSSFDALDYWGQGTSVTVSS
VL 2: DIVMTQSPSSMYASLGERVTISCKASQDIRSYLSWFQQKPGKSPKTLIYRANRLVDGVPSRFSGSGSGQDYSLTITSLEFGDVGLYYCLQYDEFPLTFGAGTKLKIE
B4: bispecific anti-KLB antibody 23B3/28B7 (IgG format) (bispecific antibody, V domains shown)
VH 1: B3 VH 2
VL 1: B3 VL 2
VH 2: B2 VH 2
VL 2: B2 VL 2
B5: bispecific anti-KLB antibody 4H7/28B7 (IgG format) (bispecific antibody, V domains shown)
VH 1: QVQLQQSGPELVKPGASVKLSCKASGYTFTNYDINWVRQRPGQGLEWIGWIYPRDGSAKYNAKFKGKATLTVDTSSSTAYMELHSLTSEDSAVYFCARRPLYYGSTHWYFDVWGTGTTVTVSS
VL 1: DIVLTQSPASLAVSLGQRATISCKASQSVDYDGDSYMNWYQQKPGQPPKLLIYAASNLKSGIPARFSGSGSGTDFTLNIHPVEEEDAATYYCQQSNEDPRTFGGGTRLEIK
VH 2: B2 VH 2
VL 2: B2 VL 2

Each binder was assayed against human KLB/FGFR1c receptor complex on cells (human, UniProt Q86Z14 53-1044; P11362 22-822) (assay: cell-based or functional assay).

EC50 (nM), luciferase-based reporter assay	Binder
1.36 nM	B1
0.58 nM	B2
0.95 nM	B3
0.63 nM	B4
1.21 nM	B5
